From US20230277625A1 (SIMCHA IL 18, published 2023)
Positions count from the first letter of the chain named. Names may count otherwise.

T1: Human IL-18Rα ectodomain (amino acids 19-329), biotinylated (human, UniProt Q13478 19-329, biotin on the AviTag (BirA ligase))
T1 construct: range 19-329; Secreted from insect cells (gp67 signal peptide removed); also called hIL-18Rα; hIL18Rα
T1 sequence: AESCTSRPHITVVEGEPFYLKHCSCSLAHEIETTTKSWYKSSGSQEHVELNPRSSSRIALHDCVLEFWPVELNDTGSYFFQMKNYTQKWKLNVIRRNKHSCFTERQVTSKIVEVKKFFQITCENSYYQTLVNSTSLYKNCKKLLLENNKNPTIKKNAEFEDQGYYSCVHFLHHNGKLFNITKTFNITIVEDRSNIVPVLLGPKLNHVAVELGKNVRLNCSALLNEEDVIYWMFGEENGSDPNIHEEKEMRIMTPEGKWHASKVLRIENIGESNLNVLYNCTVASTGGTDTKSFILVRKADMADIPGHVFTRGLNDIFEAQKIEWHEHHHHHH

T2: IL-18 receptor (IL-18Rα / IL-18Rβ heterodimer) on HEK-Blue IL-18 reporter cells (UniProt Q13478 19-541; O95256 20-599, limits assumed)
T2 sequence (looked up) 1: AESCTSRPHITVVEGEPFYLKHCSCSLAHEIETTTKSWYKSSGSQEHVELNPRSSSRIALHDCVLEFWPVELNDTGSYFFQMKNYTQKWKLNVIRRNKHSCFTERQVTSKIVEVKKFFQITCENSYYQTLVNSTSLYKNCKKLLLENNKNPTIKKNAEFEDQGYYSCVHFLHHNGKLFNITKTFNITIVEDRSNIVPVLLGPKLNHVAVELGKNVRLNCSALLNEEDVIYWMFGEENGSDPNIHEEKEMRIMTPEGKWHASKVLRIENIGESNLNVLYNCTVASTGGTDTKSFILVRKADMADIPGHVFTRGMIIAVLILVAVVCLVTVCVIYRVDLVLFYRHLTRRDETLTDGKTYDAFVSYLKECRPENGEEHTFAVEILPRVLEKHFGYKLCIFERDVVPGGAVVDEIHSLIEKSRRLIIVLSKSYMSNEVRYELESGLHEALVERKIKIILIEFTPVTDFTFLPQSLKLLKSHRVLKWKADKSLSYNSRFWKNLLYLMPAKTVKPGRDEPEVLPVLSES
T2 sequence (looked up) 2: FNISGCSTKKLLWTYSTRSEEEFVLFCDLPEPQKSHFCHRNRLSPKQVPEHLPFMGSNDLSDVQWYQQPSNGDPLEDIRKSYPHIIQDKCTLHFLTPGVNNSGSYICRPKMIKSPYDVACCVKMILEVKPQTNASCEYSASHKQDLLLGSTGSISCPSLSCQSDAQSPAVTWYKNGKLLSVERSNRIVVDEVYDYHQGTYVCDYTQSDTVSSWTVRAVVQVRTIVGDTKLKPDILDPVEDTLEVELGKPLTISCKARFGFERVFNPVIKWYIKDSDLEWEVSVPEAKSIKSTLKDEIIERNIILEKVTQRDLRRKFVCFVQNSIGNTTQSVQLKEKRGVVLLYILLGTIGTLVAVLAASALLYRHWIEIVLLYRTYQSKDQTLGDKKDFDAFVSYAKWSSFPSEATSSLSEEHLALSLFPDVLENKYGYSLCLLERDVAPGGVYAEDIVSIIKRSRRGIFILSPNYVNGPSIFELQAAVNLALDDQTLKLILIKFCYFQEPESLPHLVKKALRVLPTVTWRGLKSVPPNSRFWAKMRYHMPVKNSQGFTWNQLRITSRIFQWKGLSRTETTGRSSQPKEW

T3: Human IL-18BP (amino acids 31-194), biotinylated (human, UniProt O95998 31-194, biotin on the AviTag (BirA ligase) where used biotinylated)
T3 construct: Soluble decoy receptor; also called hIL-18BP; recombinant IL-18BP
T3 sequence: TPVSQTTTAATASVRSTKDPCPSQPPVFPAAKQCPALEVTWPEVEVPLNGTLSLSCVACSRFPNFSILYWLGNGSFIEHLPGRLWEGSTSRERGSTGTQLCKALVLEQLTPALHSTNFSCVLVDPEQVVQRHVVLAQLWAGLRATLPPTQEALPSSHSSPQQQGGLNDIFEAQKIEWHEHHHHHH

B1: SEQ ID NO: 87 (second generation human DR-IL-18 variant 6-31) (ligand)
chain: YFGKLESKLSVIRNLNDQVLFIDQGNRPLFEDMTDSDCRDNAPRTIFIISKYGDSGARGLAVTISVKCEKISTLSCENKIISFKEMNPPDNIKDTKSDIIFFERDVPGHSGKVQFESSSYEGYFLACEKERDLFKLILKKEDELGDRSIMFTVQNED
notes: Engineered variant; recombinant soluble analyte in SPR and cell assays
B2: SEQ ID NO: 90 (second generation human DR-IL-18 variant 6-27) (ligand)
chain: B1 chain with G53S, G56R, E103A, D105S, S110G, G111R, V113T
notes: as for B1
B3: SEQ ID NO: 17 (SEQ ID NO: 89 plus C38S/C68A) (ligand)
chain: B1 chain with C38S, G53S, G56L, C68A, E103Q, G111R, V113M
B4: SEQ ID NO: 16 (SEQ ID NO: 89 plus C38S/C68G) (ligand)
chain: B1 chain with C38S, G53S, G56L, C68G, E103Q, G111R, V113M
B5: SEQ ID NO: 18 (SEQ ID NO: 89 plus C38S/C68V) (ligand)
chain: B1 chain with C38S, G53S, G56L, C68V, E103Q, G111R, V113M
B6: SEQ ID NO: 20 (SEQ ID NO: 89 plus C38S/C68E) (ligand)
chain: B1 chain with C38S, G53S, G56L, C68E, E103Q, G111R, V113M
B7: SEQ ID NO: 6 (SEQ ID NO: 89 plus C38S/C68S) (ligand)
chain: B1 chain with C38S, G53S, G56L, C68S, E103Q, G111R, V113M
B8: SEQ ID NO: 21 (SEQ ID NO: 89 plus C38S/C68N) (ligand)
chain: B1 chain with C38S, G53S, G56L, C68N, E103Q, G111R, V113M
B9: SEQ ID NO: 94 (human D2D IL-18 variant hD2D-5F10) (ligand)
chain: HFGKLESKLSVIRNLNGQVLFIDQGNRPLFADMEASPCRDNAPRTIFIISFYKDSQPRGLAVTISVKCEKISTLSCENKIISFKEMNPPDNIKDTKSDIIFFLRSVPGHDNKMQFESSSYEGYFLACEKERDLFKLILKKEDELGDRSIMFTVQNED
notes: Engineered decoy-to-the-decoy variant
B10: SEQ ID NO: 124 (human D2D IL-18 consensus hD2D-CS2) (ligand)
chain: B9 chain with H1Y, E34T, A35S, P37D, L60M
notes: as for B9
B11: SEQ ID NO: 99 (human D2D IL-18 variant hD2D-5F01) (ligand)
chain: B9 chain with A31T, E34T, A35S, P37D, N41K, H109P, M113F
notes: as for B9
B12: SEQ ID NO: 120 (human D2D IL-18 variant hD2D-5B02) (ligand)
chain: B9 chain with H1Y, E34T, A35S, S36K, P37R, F51L, L60F, L103I, M113I
notes: as for B9
B13: SEQ ID NO: 101 (human D2D IL-18 variant hD2D-5E08) (ligand)
chain: B9 chain with H1Y, A31T, E34T, M113I, D132S
notes: as for B9
B14: SEQ ID NO: 98 (human D2D IL-18 variant hD2D-5F02) (ligand)
chain: B9 chain with A31G, L60M, L103I, H109A, M113L
notes: as for B9
B15: SEQ ID NO: 125 (human D2D IL-18 consensus hD2D-CS3) (ligand)
chain: B9 chain with H1Y, A35S, P37D
notes: as for B9
B16: SEQ ID NO: 123 (human D2D IL-18 consensus hD2D-CS1) (ligand)
chain: B9 chain with H1Y, E34T, A35D, P37D, F51M, L60M
notes: as for B9

What follows are binders tested against T1, Human IL-18Rα ectodomain (amino acids …) (assay: SPR).

Binder	Kd [nM]
B1	19.4
B2	3.5

The binders below were run against T2, IL-18 receptor (IL-18Rα / IL-18Rβ …) (assay: cell-based or functional assay).

Binder	EC50-#1 (M), HEK-Blue reporter [M]	EC50-#2 (M), HEK-Blue reporter [M]
B3	1.41e-10	1.09e-10
B4	2.05e-10	1.54e-10
B5	5.19e-11	4.48e-11
B6	1.35e-10	1.62e-10
B7	1.96e-10	1.3e-10
B8	1.28e-10	1.24e-10

What follows are binders tested against T1, Human IL-18Rα ectodomain (amino acids …) (assay: SPR, apparent KD, first value of the cell).
Method: (§1) Surface Plasmon Resonance (SPR) was used to perform biophysical affinity measurements of second generation DR-IL-18 variants (binding to IL-18R vs IL-18BP). Experiments were conducted using a Biacore T100 instrument and carried out at 25° C. Biotinylated IL-18Rα or IL-18BP were immobilized onto a Biacore biotin capture chip (Series S CAP sensor chip, GE Healthcare) to yield an Rmax of ˜50 RU (IL-18Rα) or ˜10 RU (IL-18BP). Measurements were made with serial dilutions of the IL-18 variants in HEPES buffered Saline-P+ buffer (10 mM HEPES pH 7.4, 150 mM NaCl, 0.005% surfactant P20). The surface was regenerated by three 60-sec injections of regeneration buffer (3/4 (v/v) 8M guanidine hydrochloride with ¼ (v/v) 1M sodium hydroxide). Experiments were performed in multiple channels simultaneously for increased observations. All data were analyzed with the Biacore T100 evaluation software version 2.0 with a 1:1 Langmuir binding model.

Binder	Kd [nM]
B1	15.2
B2	3.9

What follows are binders tested against T1, Human IL-18Rα ectodomain (amino acids …) (assay: SPR, apparent KD, second value of the cell).
Method: as §1

Binder	Kd [nM]
B1	19.4
B2	3.5

Each binder was assayed against T1, Human IL-18Rα ectodomain (amino acids …) (assay: SPR (Biacore T100), hIL-18Rα as surface ligand; Exp 1).
Method: as §1

Binder	Kd [nM]
B1	19.4
B2	3.48

The binders below were run against T1, Human IL-18Rα ectodomain (amino acids …) (assay: SPR (Biacore T100), hIL-18Rα as surface ligand; Exp 2).
Method: as §1

Binder	Kd [nM]
B1	15.2
B2	3.85

What follows are binders tested against T1, Human IL-18Rα ectodomain (amino acids …) (assay: SPR (Biacore T100), hIL-18Rα as surface ligand, 1:1 Langmuir).
Method: as §1

Binder	koff [s⁻¹]	kon [M⁻¹ s⁻¹]
B1	0.00332	218000
B2	0.00243	631000

What follows are binders tested against T1, Human IL-18Rα ectodomain (amino acids …) (assay: on-yeast binding isotherm (flow cytometry), drawn summary table, IL18Rα (KD)).
Method: Individual colonies of IL-18 yeast were grown overnight at 30° C. in SDCAA liquid media and induced in SGCAA liquid media for 1 day at 20° C. IL-18 display levels on yeast were verified by flow cytometry using an anti-cMyc tag antibody (anti-myc-PE; Cell Signaling Technologies). Receptor staining with biotinylated IL-18Rα (with or without IL-18R β) or biotinylated IL-18BP was performed in PBS supplemented with 0.5% BSA and 2 mM EDTA (PBE) on ice. All analysis was performed on a Sony SA3800 flow cytometer.

Binder	Kd [nM]
B1	41
B2	42

The binders below were run against T3, Human IL-18BP (amino acids 31-194), … (assay: on-yeast binding isotherm (flow cytometry), drawn summary table, column IL18BP (KD)).

Binder	Kd [nM]
B9	6.4
B10	7.9
B11	4.8
B12	4.2
B13	8.8
B14	5.4
B15	8.9
B16	5.9

The binders below were run against T3, Human IL-18BP (amino acids 31-194), … (assay: SPR; KD(IL-18BP)/KD(IL-18Rα) normalized to WT IL-18; SPR; ratio from the bound KD BP >10,000 nM).
Method: as §1

Binder	IL-18 BP:Rα Dissociation Constant Ratio
B1	> 1.06e+06
B2	> 5.86e+06

These binders were tested against T3, Human IL-18BP (amino acids 31-194), … (assay: on-yeast binding isotherms; 20 µM used for NBD; printed without '>'; yeast-displayed variant; ratio computed with 20 µM put in for NBD).

Binder	KD ratio IL-18BP/IL-18Rα
B1	> 490
B2	> 480

These binders were tested against T3, Human IL-18BP (amino acids 31-194), … (assay: on-yeast binding isotherms; KD ratio relative to WT IL-18; yeast-displayed variant; ratio normalized to WT, from the 20 µM placeholder).

Binder	Dissociation Constant Ratio normalized to WT IL-18
B1	> 7200
B2	> 7000
